Stoichiometry N data for one molecule are collected here from paper PMC5400778.

The stoichiometry N is a count of units in the complex or per binding partner.

For the assay, the target named is His-tagged BG505 SOSIP.664 trimer with the N185h glycan site removed (HIV (isolate BG505)) (UniProt Q2N0S6). The assay is described as follows: SPR; Biacore 3000, 25°C; His-tagged BG505 SOSIP trimers immobilised on the chip by His-tag capture; PGT145 Fab as analyte; kinetic analysis. (In general: In SPR one partner is held on a chip, and binding of the other changes the refractive index at the surface.)

B1: PGT145 Fab (Fab, V domains shown)
VH: QVQLVQSGAEVKKPGSSVKVSCKASGNSFSNHDVHWVRQATGQGLEWMGWMSHEGDKTGLAQKFQGRVTITRDSGASTVYMELRGLTADDTAIYYCLTGSKHRLRDYFLYNEYGPNYEEWGDYLATLDVWGHGTAVTVSS
VL: EVVITQSPLFLPVTPGEAASLSCKCSHSLQHSTGANYLAWYLQRPGQTPRLLIHLATHRASGVPDRFSGSGSGTDFTLKISRVESDDVGTYYCMQGLHSPWTFGQGTKVEIK
The molecule B1 had a stoichiometry N of 0.96.
